# Reference: the supplement of paper PMC9112550, “Optimization of the antimicrobial peptide Bac7 by deep mutational scanning” (BMC Biology, 2022)
# System: Escherichia coli TOP10
# Assay: shrunken log2 fold change of peptide-encoding DNA abundance (4.5 h post-induction vs induction); higher = less antimicrobial activity (less host growth inhibition)
# Details: time post-induction: 4.5 h; library: site-saturation at positions 5, 18, 19, 20
# 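Also: peptides expressed intracellularly from a pBAD plasmid library in pooled LB shake-flask culture, induced with 0.3% L-arabinose, DNA abundance read by NGS, three biological replicates, DESeq2 with apeglm shrinkage.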
row,Sequence,shrunken log2 fold change
1,RRIRSRPPRLPRPRPRPRSGPRP,0.237
2,RRIRCRPPRLPRPRPRPVLDPRP,0.0892
3,RRIRERPPRLPRPRPRPNYQPRP,-0.812
4,RRIRPRPPRLPRPRPRPQLAPRP,0.417
5,RRIRWRPPRLPRPRPRPFCQPRP,-0.0441
6,RRIRIRPPRLPRPRPRPCSCPRP,-0.446
7,RRIRMRPPRLPRPRPRPCDMPRP,0.195
8,RRIRKRPPRLPRPRPRPWKPPRP,-0.243
9,RRIRNRPPRLPRPRPRPQQYPRP,0.017
10,RRIRQRPPRLPRPRPRPVMCPRP,-0.119
11,RRIRARPPRLPRPRPRPCNWPRP,-0.0619
12,RRIRKRPPRLPRPRPRPNHRPRP,-0.334
13,RRIRYRPPRLPRPRPRPAVTPRP,-3.6
14,RRIRYRPPRLPRPRPRPQPCPRP,0.025
15,RRIRIRPPRLPRPRPRPQHDPRP,-0.0884
16,RRIRDRPPRLPRPRPRPSGSPRP,-0.00469
17,RRIRMRPPRLPRPRPRPAYDPRP,-0.0572
18,RRIRDRPPRLPRPRPRPAWWPRP,0.388
19,RRIRDRPPRLPRPRPRPVEGPRP,0.211
20,RRIRQRPPRLPRPRPRPQRKPRP,-0.058
21,RRIRARPPRLPRPRPRPTNFPRP,-0.0105
22,RRIRMRPPRLPRPRPRPQICPRP,0.058
23,RRIRCRPPRLPRPRPRPFQPPRP,-0.281
24,RRIRVRPPRLPRPRPRPFRPPRP,-0.324
25,RRIRGRPPRLPRPRPRPNQQPRP,0.0317

row,Sequence,shrunken log2 fold change
1,RRIRERPPRLPRPRPRPAVEPRP,0.108
2,RRIRPRPPRLPRPRPRPEDQPRP,0.106
3,RRIRIRPPRLPRPRPRPPSGPRP,0.537
4,RRIRIRPPRLPRPRPRPETNPRP,-0.264
5,RRIRPRPPRLPRPRPRPYTGPRP,-0.6
6,RRIRHRPPRLPRPRPRPLGPPRP,0.191
7,RRIRIRPPRLPRPRPRPKQSPRP,-0.384
8,RRIRIRPPRLPRPRPRPNTEPRP,-0.0443
9,RRIRQRPPRLPRPRPRPMPYPRP,-0.0574
10,RRIRHRPPRLPRPRPRPTRHPRP,0.36
11,RRIRFRPPRLPRPRPRPIHDPRP,-0.211
12,RRIRIRPPRLPRPRPRPYSSPRP,-0.239
13,RRIRFRPPRLPRPRPRPNQRPRP,0.269
14,RRIRCRPPRLPRPRPRPVPVPRP,0.0927
15,RRIRRRPPRLPRPRPRPMHTPRP,0.322
16,RRIRERPPRLPRPRPRPSALPRP,-0.373
17,RRIRRRPPRLPRPRPRPAVVPRP,0.518
18,RRIRRRPPRLPRPRPRPHCEPRP,-0.169
19,RRIRARPPRLPRPRPRPMRGPRP,1.56
20,RRIRQRPPRLPRPRPRPSGTPRP,0.0732
21,RRIRGRPPRLPRPRPRPKMPPRP,0.434
22,RRIRVRPPRLPRPRPRPPSDPRP,0.197
23,RRIRQRPPRLPRPRPRPGQHPRP,-0.0301
24,RRIRARPPRLPRPRPRPPSSPRP,0.342
25,RRIRVRPPRLPRPRPRPQMVPRP,0.0123

row,Sequence,shrunken log2 fold change
1,RRIRPRPPRLPRPRPRPHHVPRP,0.0547
2,RRIRTRPPRLPRPRPRPKKTPRP,0.0546
3,RRIRHRPPRLPRPRPRPWSVPRP,-0.125
4,RRIRDRPPRLPRPRPRPDACPRP,0.52
5,RRIRCRPPRLPRPRPRPDTSPRP,-0.365
6,RRIRGRPPRLPRPRPRPTPQPRP,1.05
7,RRIRIRPPRLPRPRPRPMLFPRP,-0.328
8,RRIRERPPRLPRPRPRPHQPPRP,0.202
9,RRIRQRPPRLPRPRPRPVNRPRP,0.00086
10,RRIRFRPPRLPRPRPRPGEPPRP,0.118
11,RRIRGRPPRLPRPRPRPCDFPRP,0.102
12,RRIRQRPPRLPRPRPRPCYKPRP,-0.271
13,RRIRTRPPRLPRPRPRPQITPRP,-0.474
14,RRIRPRPPRLPRPRPRPVYGPRP,-0.486
15,RRIRMRPPRLPRPRPRPDMSPRP,-0.00277
16,RRIRRRPPRLPRPRPRPCMHPRP,0.105
17,RRIRDRPPRLPRPRPRPFRMPRP,-0.125
18,RRIRPRPPRLPRPRPRPMKAPRP,0.0531
19,RRIRQRPPRLPRPRPRPQWGPRP,-0.161
20,RRIRLRPPRLPRPRPRPIVFPRP,-0.0377
21,RRIRKRPPRLPRPRPRPPLVPRP,0.598
22,RRIRNRPPRLPRPRPRPHCRPRP,0.00914
23,RRIRKRPPRLPRPRPRPEIGPRP,0.191
24,RRIRNRPPRLPRPRPRPEMWPRP,-0.0348
25,RRIRQRPPRLPRPRPRPAPHPRP,0.343

row,Sequence,shrunken log2 fold change
1,RRIRSRPPRLPRPRPRPKAWPRP,0.148
2,RRIRVRPPRLPRPRPRPWKSPRP,0.0332
3,RRIRDRPPRLPRPRPRPRTHPRP,-0.188
4,RRIRGRPPRLPRPRPRPGLEPRP,1.1
5,RRIRMRPPRLPRPRPRPYCCPRP,-0.348
6,RRIRSRPPRLPRPRPRPTITPRP,-0.229
7,RRIRPRPPRLPRPRPRPHDIPRP,0.152
8,RRIRFRPPRLPRPRPRPTRPPRP,0.776
9,RRIRKRPPRLPRPRPRPDACPRP,0.00649
10,RRIRLRPPRLPRPRPRPIYTPRP,-0.377
11,RRIRARPPRLPRPRPRPDACPRP,0.955
12,RRIRTRPPRLPRPRPRPYCDPRP,-0.512
13,RRIRDRPPRLPRPRPRPDATPRP,0.0857
14,RRIRKRPPRLPRPRPRPTKVPRP,1.21
15,RRIRIRPPRLPRPRPRPSEQPRP,-0.0663
16,RRIRLRPPRLPRPRPRPLRYPRP,-0.0797
17,RRIRVRPPRLPRPRPRPPKEPRP,0.0261
18,RRIRQRPPRLPRPRPRPGDNPRP,-0.203
19,RRIRPRPPRLPRPRPRPFPEPRP,0.0208
20,RRIRCRPPRLPRPRPRPWFNPRP,-1.12
21,RRIRERPPRLPRPRPRPDTNPRP,-0.183
22,RRIRMRPPRLPRPRPRPSILPRP,0.0568
23,RRIRQRPPRLPRPRPRPWICPRP,0.117
24,RRIRFRPPRLPRPRPRPNNFPRP,-0.383
25,RRIRMRPPRLPRPRPRPHPLPRP,0.37

row,Sequence,shrunken log2 fold change
1,RRIRNRPPRLPRPRPRPYPCPRP,-0.00822
2,RRIRCRPPRLPRPRPRPTVYPRP,-0.915
3,RRIRTRPPRLPRPRPRPGMIPRP,-0.0261
4,RRIRTRPPRLPRPRPRPMIRPRP,-0.0798
5,RRIRFRPPRLPRPRPRPNGLPRP,-0.0551
6,RRIRGRPPRLPRPRPRPREPPRP,0.812
7,RRIRGRPPRLPRPRPRPLFYPRP,0.257
8,RRIRARPPRLPRPRPRPRFPPRP,0.421
9,RRIRGRPPRLPRPRPRPRMQPRP,0.494
10,RRIRPRPPRLPRPRPRPDINPRP,-0.673
11,RRIRIRPPRLPRPRPRPSQMPRP,-0.0716
12,RRIRGRPPRLPRPRPRPIYEPRP,-0.0413
13,RRIRRRPPRLPRPRPRPVNAPRP,0.37
14,RRIRSRPPRLPRPRPRPHEHPRP,0.113
15,RRIRNRPPRLPRPRPRPKHEPRP,0.13
16,RRIRDRPPRLPRPRPRPVPPPRP,0.453
17,RRIRVRPPRLPRPRPRPHFPPRP,0.046
18,RRIRTRPPRLPRPRPRPAASPRP,0.169
19,RRIRQRPPRLPRPRPRPGKRPRP,0.244
20,RRIRLRPPRLPRPRPRPHNMPRP,-0.495
21,RRIRDRPPRLPRPRPRPAITPRP,0.284
22,RRIRFRPPRLPRPRPRPTPTPRP,0.471
23,RRIRYRPPRLPRPRPRPMMLPRP,-0.00141
24,RRIRHRPPRLPRPRPRPKENPRP,-0.0597
25,RRIRYRPPRLPRPRPRPAWAPRP,0.253

row,Sequence,shrunken log2 fold change
1,RRIRTRPPRLPRPRPRPHGEPRP,0.16
2,RRIRTRPPRLPRPRPRPCLPPRP,-0.0953
3,RRIRARPPRLPRPRPRPPKHPRP,0.472
4,RRIRVRPPRLPRPRPRPYHMPRP,-0.305
5,RRIRHRPPRLPRPRPRPFLTPRP,-0.217
6,RRIRARPPRLPRPRPRPKYPPRP,-0.178
7,RRIRERPPRLPRPRPRPDVMPRP,0.0164
8,RRIRTRPPRLPRPRPRPCFPPRP,-0.141
9,RRIRYRPPRLPRPRPRPVTDPRP,-0.418
10,RRIRGRPPRLPRPRPRPFKNPRP,0.243
11,RRIRCRPPRLPRPRPRPQVGPRP,-0.0906
12,RRIRDRPPRLPRPRPRPQWTPRP,0.448
13,RRIRQRPPRLPRPRPRPIVGPRP,0.0288
14,RRIRWRPPRLPRPRPRPGEFPRP,0.17
15,RRIRYRPPRLPRPRPRPSVTPRP,-0.421
16,RRIRTRPPRLPRPRPRPWWYPRP,-0.308
17,RRIRPRPPRLPRPRPRPARVPRP,0.295
18,RRIRCRPPRLPRPRPRPSVHPRP,-0.575
19,RRIRSRPPRLPRPRPRPTGAPRP,0.633
20,RRIRLRPPRLPRPRPRPPVIPRP,-0.0477
21,RRIRKRPPRLPRPRPRPTETPRP,0.114
22,RRIRCRPPRLPRPRPRPQDYPRP,-0.176
23,RRIRCRPPRLPRPRPRPTLDPRP,0.337
24,RRIRLRPPRLPRPRPRPMDQPRP,-0.0503
25,RRIRRRPPRLPRPRPRPTVTPRP,0.144
